The target of series [1] is T1, phytase from Aspergillus niger 11T53A9 (Aspergillus niger, UniProt P34752).
T1 sequence (P34752 24-467): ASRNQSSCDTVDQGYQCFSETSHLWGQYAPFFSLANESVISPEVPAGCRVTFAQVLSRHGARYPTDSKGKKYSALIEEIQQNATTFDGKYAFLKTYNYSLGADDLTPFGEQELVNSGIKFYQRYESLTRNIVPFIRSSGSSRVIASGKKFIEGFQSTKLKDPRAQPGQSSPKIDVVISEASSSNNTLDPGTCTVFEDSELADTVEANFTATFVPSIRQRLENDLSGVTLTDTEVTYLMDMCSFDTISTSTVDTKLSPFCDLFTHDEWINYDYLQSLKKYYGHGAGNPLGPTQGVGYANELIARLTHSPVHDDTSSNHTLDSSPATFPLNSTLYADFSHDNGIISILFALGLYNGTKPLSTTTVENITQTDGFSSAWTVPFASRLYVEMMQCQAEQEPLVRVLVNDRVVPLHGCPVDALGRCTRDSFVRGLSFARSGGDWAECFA
The series is described as follows: biochemical.

Series [2] has as its system Saccharomyces cerevisiae phytase. The series is described as follows: phosphate release, ammonium molybdate, Lineweaver-Burk. It counts as biochemical. The following applies: pH 5.0, 37°C, 100 mM sodium acetate; InsP3 prepared with S. cerevisiae phytase.
Substrate in series [3]: O=P(O)(O)Oc1ccc2ccccc2c1
The series is described as follows: purified protein. The following applies: pH 5.0, 37°C, 100 mM sodium acetate.

Substrate in series [4]: O=P(O)(O)Oc1ccccc1
The series is described as follows: purified protein. As to conditions: pH 5.0, 37°C, 100 mM sodium acetate.

Substrate in series [5]: Nc1ncnc2c1ncn2[C@@H]1O[C@H](COP(=O)(O)O)[C@@H](O)[C@H]1O
The series is described as follows: purified protein. The following applies: pH 5.0, 37°C, 100 mM sodium acetate.

Substrate in series [6]: O=P(O)(O)OC(CO)CO
The series is described as follows: purified protein. The following applies: pH 5.0, 37°C, 100 mM sodium acetate.

Substrate in series [7]: O=[N+]([O-])c1ccc(OP(=O)(O)O)cc1
The series is described as follows: purified protein. As to conditions: pH 5.0, 37°C, 100 mM sodium acetate.

Substrate in series [8]: Nc1ncnc2c1ncn2[C@@H]1O[C@H](COP(=O)(O)OP(=O)(O)OP(=O)(O)O)[C@@H](O)[C@H]1O
The series is described as follows: purified protein. The following applies: pH 5.0, 37°C, 100 mM sodium acetate.

Substrate in series [9]: O=P(O)(O)O[C@H]1O[C@H](CO)[C@@H](O)[C@H](O)[C@H]1O
The series is described as follows: purified protein. As to conditions: pH 5.0, 37°C, 100 mM sodium acetate.

Substrate in series [10]: O=P(O)(O)O[C@H]1[C@H](OP(=O)(O)O)[C@@H](OP(=O)(O)O)[C@H](OP(=O)(O)O)[C@@H](OP(=O)(O)O)[C@H]1OP(=O)(O)O
The series is described as follows: purified protein. As to conditions: pH 5.0, 37°C, 100 mM sodium acetate.

Substrate in series [11]: Nc1ncnc2c1ncn2[C@@H]1O[C@H](COP(=O)(O)OP(=O)(O)O)[C@@H](O)[C@H]1O
The series is described as follows: purified protein. As to conditions: pH 5.0, 37°C, 100 mM sodium acetate.

Substrate in series [12]: O=P(O)(O)Oc1cccc2ccccc12
The series is described as follows: purified protein. As to conditions: pH 5.0, 37°C, 100 mM sodium acetate.

For orientation: Ki means the dissociation constant of the complex between target and ligand, obtained from inhibition or displacement. In the case of `F` [Fluoride], the inhibitory constant (Ki) in [1] was found to be 158 µM.
The Km is the concentration of substrate that gives half-maximal velocity. As for `O=P(O)(O)O[C@@H]1[C@H](OP(=O)(O)O)[C@H](O)[C@@H](O)[C@H](O)[C@H]1OP(=O)(O)O` [D-Ins(1,2,6)P3], the Michaelis-Menten constant (Km) in series [2] was 293 ± 12 µM.

B1: phytase from Aspergillus niger 11T53A9 (Aspergillus niger) (protein)
chain: T1 sequence (P34752 24-467)
For orientation: kcat means the maximal rate divided by the concentration of active sites. A word on the kcat/Km: it is the turnover number divided by the Michaelis constant. Regarding B1, the Km in the series “purified protein [3]” came to 276 ± 7.1 µM; in “purified protein [4]”, 177 ± 1.3 µM; in “purified protein [5]”, 497 ± 8.2 µM; in “purified protein [6]” it was 521 ± 9.1 µM; in “purified protein [7]”, 124 ± 3.9 µM; in the series “purified protein [8]”, 587 ± 6.5 µM. The Michaelis constant (Km) was 741 ± 6.4 µM in “purified protein [9]”, 54 ± 1.4 µM in “purified protein [10]”, 534 ± 7.9 µM in “purified protein [11]” and 247 ± 6.7 µM in “purified protein [12]”. The kcat in the series “purified protein [3]” came to 22 s⁻¹; in “purified protein [4]”, 36 s⁻¹; in “purified protein [5]”, 11 ± 1.1 s⁻¹; in the series “purified protein [6]” it was 9 ± 0.3 s⁻¹; in the series “purified protein [7]”, 35 ± 0.9 s⁻¹; in the series “purified protein [8]” it was 8 s⁻¹. In addition, the kcat in “purified protein [9]” came to 6 ± 0.4 s⁻¹; in “purified protein [10]”, 190 ± 4.3 s⁻¹; in the series “purified protein [11]”, 12 ± 0.9 s⁻¹; in the series “purified protein [12]” it was 23 ± 1.5 s⁻¹. In addition, the kcat/Km was 79700 M⁻¹ s⁻¹ in “purified protein [3]”; 203000 M⁻¹ s⁻¹ in the series “purified protein [4]”; 22100 M⁻¹ s⁻¹ in the series “purified protein [5]”; 17300 M⁻¹ s⁻¹ in the series “purified protein [6]”; 282000 M⁻¹ s⁻¹ in the series “purified protein [7]”; 13600 M⁻¹ s⁻¹ in the series “purified protein [8]”. Also, the kcat/Km was 8100 M⁻¹ s⁻¹ in “purified protein [9]”, 3.52e+06 M⁻¹ s⁻¹ in the series “purified protein [10]”, 22500 M⁻¹ s⁻¹ in the series “purified protein [11]” and 93100 M⁻¹ s⁻¹ in “purified protein [12]”.

(Values after PMC3768570 (Brazilian Journal of Microbiology, 2009).)
